Laboratory results taken from US20060172377.

What was measured:
[1] = molecular target: T1, SPβc2 recombinase (yokA) (Bacillus subtilis phage SPβc2) (UniProt O32006); test: cell_activity; conditions: integration of attP (N1) plasmid at pseudo attB; 0 clones without recombinase; 15 integrations at this site
T1 sequence: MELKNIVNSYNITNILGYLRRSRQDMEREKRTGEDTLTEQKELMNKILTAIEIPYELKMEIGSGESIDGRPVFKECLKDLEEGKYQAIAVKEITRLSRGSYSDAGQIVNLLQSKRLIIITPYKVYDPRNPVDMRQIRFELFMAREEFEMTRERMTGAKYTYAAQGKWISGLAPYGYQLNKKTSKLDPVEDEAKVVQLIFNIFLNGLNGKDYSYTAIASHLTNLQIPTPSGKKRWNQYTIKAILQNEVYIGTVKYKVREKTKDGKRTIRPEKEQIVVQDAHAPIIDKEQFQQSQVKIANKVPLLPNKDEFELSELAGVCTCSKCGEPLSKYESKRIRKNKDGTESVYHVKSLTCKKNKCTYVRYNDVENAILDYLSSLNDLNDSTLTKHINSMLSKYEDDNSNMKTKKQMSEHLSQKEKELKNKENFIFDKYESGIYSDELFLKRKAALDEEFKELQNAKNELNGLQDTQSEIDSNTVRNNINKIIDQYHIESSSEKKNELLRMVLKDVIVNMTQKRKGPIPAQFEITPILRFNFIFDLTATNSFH

[2] = tested on: T2, SF370.1 recombinase (Streptococcus pyogenes phage SF370.1); test: cell_activity; conditions: integration of attP (N3) plasmid at pseudo attB; 9 clones without recombinase; 35 of 100 rescued at this site
T2 sequence: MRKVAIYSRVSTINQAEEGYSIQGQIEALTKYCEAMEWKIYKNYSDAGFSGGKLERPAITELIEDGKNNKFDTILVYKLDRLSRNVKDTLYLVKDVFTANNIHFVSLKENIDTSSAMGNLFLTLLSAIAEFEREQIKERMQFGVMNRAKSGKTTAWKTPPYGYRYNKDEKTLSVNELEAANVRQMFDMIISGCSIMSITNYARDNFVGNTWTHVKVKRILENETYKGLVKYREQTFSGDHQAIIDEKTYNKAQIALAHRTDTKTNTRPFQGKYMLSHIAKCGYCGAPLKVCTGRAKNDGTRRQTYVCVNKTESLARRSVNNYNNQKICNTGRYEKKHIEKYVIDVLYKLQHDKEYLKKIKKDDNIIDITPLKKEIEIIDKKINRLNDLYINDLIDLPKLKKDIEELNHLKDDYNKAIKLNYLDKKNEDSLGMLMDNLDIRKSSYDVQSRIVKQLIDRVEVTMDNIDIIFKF

Substance | activity (hygromycinR clones) [1] | activity (hygromycinR clones) [2]
SPβc2 human pseudo attB | > 100 | 
SF370.1 human pseudo attB |  | > 100
